Measurements reported in article PMC3097204.

Key:
[1] = target: mature SsTroA domain (residues 36–317) (Streptococcus suis serotype 2 (strain 05ZYH33)); experiment: SEC; analytical FPLC Superdex 200 profile of purified SsTroA
[2] = target: mature SsTroA domain (residues 36–317) (Streptococcus suis serotype 2 (strain 05ZYH33)); experiment: AUC; sedimentation velocity profiles analysed with SEDFIT; 1 mg/ml protein in 20 mM Tris-HCl (pH 8.0), 50 mM NaCl; 50,000 rpm, 20°C; monomer and dimer

mature SsTroA domain (residues 36–317) (domain or fragment)
stoichiometry N [1]: 2 | percent of the total protein in the dimer peak [2]: 6.8% | stoichiometry N [2]: 2
